Reference: the supplement of paper PMC9233669
This sample holds only a part of the variants without activity.

How the values were obtained:
biotinyl-Phe-oxazolone = experiment: self-aminoacylation, catalytic enhancement (BFO) (fold over background); higher = more active; k-Seq, kA / k0A0; sequences stand for … in GGGAAUGGAUCCACAUCUACGAAUUC…UUCACUGCAGACUUGACGAAGCUG
Method in brief: (§1)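 The uncatalyzed rate is the low-activity peak of a bimodal Gaussian fit, and catalytic enhancement is median kA divided by it. The kA values came from pseudo-first-order fits, with 1000 bootstraps, of per-sequence fraction reacted measured by streptavidin capture, triplicate qPCR and Illumina sequencing. Mutagenized RNA pools with a 21-nt variable region (0.43 μM) were reacted with each biotinyl-aminoacyl-oxazolone at 2–1250 μM in 50 μL HEPES/NaCl/KCl/MgCl2/CaCl2 buffer with 5% acetonitrile, pH 6.9–7.0, for 90 minutes at room temperature.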

biotinyl-Ile-oxazolone = experiment: self-aminoacylation, catalytic enhancement (BIO) (fold over background); higher = more active; k-Seq, kA / k0A0; sequences stand for … in GGGAAUGGAUCCACAUCUACGAAUUC…UUCACUGCAGACUUGACGAAGCUG
Method in brief: as §1

biotinyl-Val-oxazolone = experiment: self-aminoacylation, catalytic enhancement (BVO) (fold over background); higher = more active; k-Seq, kA / k0A0; sequences stand for … in GGGAAUGGAUCCACAUCUACGAAUUC…UUCACUGCAGACUUGACGAAGCUG
Method in brief: as §1

biotinyl-Leu-oxazolone = experiment: self-aminoacylation, catalytic enhancement (BLO) (fold over background); higher = more active; k-Seq, kA / k0A0; sequences stand for … in GGGAAUGGAUCCACAUCUACGAAUUC…UUCACUGCAGACUUGACGAAGCUG
Method in brief: as §1

biotinyl-Trp-oxazolone = experiment: self-aminoacylation, catalytic enhancement (BWO) (fold over background); higher = more active; k-Seq, kA / k0A0; sequences stand for … in GGGAAUGGAUCCACAUCUACGAAUUC…UUCACUGCAGACUUGACGAAGCUG
Method in brief: as §1

biotinyl-Met-oxazolone = experiment: self-aminoacylation, catalytic enhancement (BMO) (fold over background); higher = more active; k-Seq, kA / k0A0; sequences stand for … in GGGAAUGGAUCCACAUCUACGAAUUC…UUCACUGCAGACUUGACGAAGCUG
Method in brief: as §1

Row | Sequence | self-aminoacylation (biotinyl-Phe-oxazolone) | self-aminoacylation (biotinyl-Ile-oxazolone) | self-aminoacylation (biotinyl-Val-oxazolone) | self-aminoacylation (biotinyl-Leu-oxazolone) | self-aminoacylation (biotinyl-Trp-oxazolone) | self-aminoacylation (biotinyl-Met-oxazolone)
1 | AAGUUGGCUAAUAGUCGCAUG [Fam3.1 aminoacylation ribozyme variant] | 1.69 | 1.77 | 1.51 | 2.19 | 2 | 1.88
2 | AAGUUGGCUAAUAGUCGUAAG [Fam3.1 aminoacylation ribozyme variant] | 10.7 | 1.49 | 1.37 | 1.14 | 4.1 | 1.33
3 | AAGUUGGCUACUAGUCGCAAG [Fam3.1 aminoacylation ribozyme variant] | 1.58 | 1.65 | 1.76 | 1.86 | 1.42 | 1.2
4 | AAGUUGGCUAGUAGUCGCAAG [Fam3.1 aminoacylation ribozyme variant] | 2.98 | 1.65 | 1.65 | 1.65 | 1.51 | 1.21
5 | AAGUUGGCUAUUAGUCGCAAG [Fam3.1 aminoacylation ribozyme variant] | 1.55 | 2 | 1.49 | 1.62 | 1.85 | 1.36
6 | AAGUUUACUAAUAGUAGCAAG [Fam3.1 aminoacylation ribozyme variant] | 1.97 | 1.54 | 1.22 | 1.17 | 0.98 | 1.28
7 | AAGUUUACUAAUAGUCGCAGG [Fam3.1 aminoacylation ribozyme variant] | 2.36 | 1.55 | 1.34 | 1.6 | 1.61 | 1.25
8 | AAGUUUACUAAUAGUCGCAUG [Fam3.1 aminoacylation ribozyme variant] | 2.25 | 1.49 | 1.13 | 1.34 | 1.68 | 1.25
9 | AAGUUUACUAAUAGUCGCCAG [Fam3.1 aminoacylation ribozyme variant] | 1.61 | 1.42 | 1.21 | 1.24 | 1.31 | 1.23
10 | AAGUUUACUAAUAGUCUCAAG [Fam3.1 aminoacylation ribozyme variant] | 2.39 | 1.15 | 1.29 | 1.11 | 1.23 | 0.844
11 | AAGUUUACUAAUCGUCGCAAG [Fam3.1 aminoacylation ribozyme variant] | 2.66 | 1.64 | 1.46 | 1.55 | 1.35 | 1.13
12 | AAGUUUACUAAUGGUCGCAAG [Fam3.1 aminoacylation ribozyme variant] | 1.64 | 1.59 | 1.1 | 1.47 | 2.06 | 1.28
13 | AAGUUUCCUAAUAGUCGCAAU [Fam3.1 aminoacylation ribozyme variant] | 4.15 | 2.34 | 1.88 | 2.04 | 2.47 | 1.79
14 | AAGUUUCCUAAUAGUCGCAUG [Fam3.1 aminoacylation ribozyme variant] | 2.38 | 2.28 | 1.9 | 1.94 | 2.11 | 1.89
15 | AAGUUUCCUAAUAGUGGCAAG [Fam3.1 aminoacylation ribozyme variant] | 0.605 | 0.838 | 0.902 | 0.642 | 0.634 | 0.752
16 | AAGUUUCCUCAUAGUCGCAAG [Fam3.1 aminoacylation ribozyme variant] | 3.38 | 2.1 | 2.08 | 2 | 1.84 | 1.39
17 | AAGUUUCCUGAUAGUCGCAAG [Fam3.1 aminoacylation ribozyme variant] | 3.33 | 1.67 | 1.54 | 1.69 | 1.49 | 1.69
18 | AAGUUUGAUAAUAGGCGCAAG [Fam3.1 aminoacylation ribozyme variant] | 0.836 | 0.704 | 0.551 | 0.59 | 0.74 | 0.523
19 | AAGUUUGAUAAUAGUCGAAAG [Fam3.1 aminoacylation ribozyme variant] | 1.03 | 0.705 | 0.592 | 0.543 | 0.785 | 0.568
20 | AAGUUUGCAAACAGUCGCAAG [Fam3.1 aminoacylation ribozyme variant] | 1.47 | 0.775 | 0.735 | 0.93 | 0.595 | 0.798
21 | AAGUUUGCAAAUAGUCGCAAC [Fam3.1 aminoacylation ribozyme variant] | 0.731 | 0.917 | 0.838 | 1.01 | 1.01 | 1.07
22 | AAGUUUGCAAAUAGUCGCUAG [Fam3.1 aminoacylation ribozyme variant] | 0.824 | 1.15 | 0.856 | 1 | 1.84 | 0.905
23 | AAGUUUGCAAUUAGUCGCAAG [Fam3.1 aminoacylation ribozyme variant] | 0.786 | 1.08 | 0.898 | 0.909 | 0.6 | 0.922
24 | AAGUUUGCCAAAAGUCGCAAG [Fam3.1 aminoacylation ribozyme variant] | 1.01 | 1.41 | 1.36 | 1.57 | 1.54 | 1.39
25 | AAGUUUGCCAAUAGUCGCCAG [Fam3.1 aminoacylation ribozyme variant] | 12.8 | 1.52 | 1.54 | 2.4 | 2.22 | 2.27
26 | AAGUUUGCCAAUAGUCGCUAG [Fam3.1 aminoacylation ribozyme variant] | 0.897 | 1.15 | 0.926 | 0.951 | 2.08 | 0.716
